This note sets out measurements from PMC10371797.

B1: ZC3H11A(wt)-HA [human] / PABPN1-Flag [not stated] (parent)
chain 1: MPNQGEDCYFFFYSTCTKGDSCPFRHCEAAIGNETVCTLWQEGRCFRQVCRFRHMEIDKKRSEIPCYWENQPTGCQKLNCAFHHNRGRYVDGLFLPPSKTVLPTVPESPEEEVKASQLSVQQNKLSVQSNPSPQLRSVMKVESSENVPSPTHPPVVINAADDDEDDDDQFSEEGDETKTPTLQPTPEVHNGLRVTSVRKPAVNIKQGECLNFGIKTLEEIKSKKMKEKSKKQGEGSSGVSSLLLHPEPVPGPEKENVRTVVRTVTLSTKQGEEPLVRLSLTERLGKRKFSAGGDSDPPLKRSLAQRLGKKVEAPETNIDKTPKKAQVSKSLKERLGMSADPDNEDATDKVNKVGEIHVKTLEEILLERASQKRGELQTKLKTEGPSKTDDSTSGARSSSTIRIKTFSEVLAEKKHRQQEAERQKSKKDTTCIKLKIDSEIKKTVVLPPIVASRGQSEEPAGKTKSMQEVHIKTLEEIKLEKALRVQQSSESSTSSPSQHEATPGARRLLRITKRTGMKEEKNLQEGNEVDSQSSIRTEAKEASGETTGVDITKIQVKRCETMREKHMQKQQEREKSVLTPLRGDVASCNTQVAEKPVLTAVPGITRHLTKRLPTKSSQKVEVETSGIGDSLLNVKCAAQTLEKRGKAKPKVNVKPSVVKVVSSPKLAPKRKAVEMHAAVIAAVKPLSSSSVLQEPPAKKAAVAVVPLVSEDKSVTVPEAENPRDSLVLPPTQSSSDSSPPEVSGPSSSQMSMKTRRLSSASTGKPPLSVEDDFEKLIWEISGGKLEAEIDLDPGKDEDDLLLELSEMIDS
chain 2: MAAAAAAAAAAGAAGGRGSGPGRRRHLVPGAGGEAGEGAPGGAGDYGNGLESEELEPEELLLEPEPEPEPEEEPPRPRAPPGAPGPGPGSGAPGSQEEEEEPGLVEGDPGDGAIEDPELEAIKARVREMEEEAEKLKELQNEVEKQMNMSPPPGNAGPVIMSIEEKMEADARSIYVGNVDYGATAEELEAHFHGCGSVNRVTILCDKFSGHPKGFAYIEFSDKESVRTSLALDESLFRGRQIKVIPKRTNRPGISTTDRGFPRARYRARTTNYNSSRSRFYSGFNSRPRGRVYRGRARATSWYSPY

In the assay the parent is B1. Kind of assay: co-IP (PABPN1-Flag bait), Western blot quantification. Particulars: with PABPN1-Flag; three individual experiments; read off a plot.
chain 1 C37A: the ratio to parent worked out at 0.57. Turning to chain 1 C8A, the ratio to parent was 0.24. The result for chain 1 C66A reads 0.17.
